Measurements taken from US10280200B2, “Non-natural consensus albumin binding domains” (Janssen Biotech, Inc., priority 2012, dated 2019).
Where a chain is given by its changes, count along the chain named. Numbers in names are those of the source.

How the values were obtained:
[1] = molecular target: human serum albumin (Homo sapiens, UniProt P02768); experiment: Kinetics of binding to immobilized human serum albumin, ProteOn XPR-36 surface plasmon resonance; conditions: read-out: KD (affinity) to human albumin, conditions specified herein
Experimental: Human (SEQ ID NO: 36), Rhesus (SEQ ID NO: 37), and murine (SEQ ID NO: 38) serum albumins were purchased from Sigma (Catalogue # A4327 for human, #A3559 for murine, and #A4297 for rhesus) and resuspended in PBS at different concentrations. Each serum albumin was directly immobilized on a ligand channel in the vertical orientation of a GLC chip via standard amine coupling at 2.1 μg/mL at pH 5.0 to obtain surfaces with ligand densities of 500-1000 resonance units. […] The dissociation phases for all concentrations were monitored for two hours at a flow rate of 100 μL/min using PBST (PBS, 0.005% Tween20) as running buffer. A sixth sample (buffer only) was injected to monitor the baseline stability. The surfaces were regenerated using 1 short pulse (18 μL) of 0.8% phosphoric acid.
The raw response data were first processed by subtracting the buffer only responses and the non-specific binding between the analytes and the chip. Processed data of all five concentrations were globally fit to a 1:1 simple langmuir binding model for each ligand surface.

[2] = Solubility after expression and purification from E. coli; type: physicochemical; conditions: expressed and purified from E. coli
[3] = Thermal stability by differential scanning calorimetry (DSC) in PBS; type: physicochemical
Experimental: A second identical scan was completed on the sample in order to assess the reversibility of thermal folding/unfolding. Data was fit to a 2-state unfolding model in order to calculate the melting temperature.
The melting temperature of ABDCon12 was determined by differential scanning calorimetry using the procedures outlined in Example 2 above in order to investigate the mechanism of stabilization for this molecule.

[4] = Stability on incubation in PBS at 37° C. for 28 days, SDS-PAGE and Mass Spectrometry; type: physicochemical; conditions: PBS pH 7.4, 37° C.
Experimental: The FN3 domain-ABDCon fusion proteins were generated using standard cloning techniques. The amino acid sequence of one of the fusion proteins, Tencon-ABDCon is shown in SEQ ID NO: 41. Other FN3 domain-ABDCon fusion proteins made were Tencon25-ABDCon, 83-ABDCon and 71-ABDCon. These proteins were produced with c-terminal poly histidine tags and purified by a combination of nickel affinity and size exclusion chromatography using standard methods. Each purified molecule was incubated in PBS pH 7.4 at 37° C. for 28 days before analysis by SDS-PAGE and Mass Spectrometry.
However one peptide sequence, TIDEWL (SEQ ID NO: 43), is present N-terminal to 5 of these protein domains. […] This protein was expressed with an N-terminal poly histidine tag and purified to homogeneity using standard methods for nickel affinity chromatography and size exclusion chromatography. Purified ABDCon12 was incubated at 37° C. in PBS for 28 days and stability assessed by SDS-PAGE and mass spectrometry.

[5] = Serum half-life / pharmacokinetics of fusion proteins in mice (MSD sandwich ELISA of serum); type: in vivo, BALB/c female mice
Experimental: Tencon25 is a protein scaffold based on a consensus sequence of a fibronectin type III (FN3) repeat protein having a sequence shown in residues 1-90 of SEQ ID NO: 39, and described in US2011/0274623A1. […] The resulting fusion protein has a polypeptide sequence shown in SEQ ID NO: 39. A poly-histidine tag was incorporated at the C-terminus for purification purposes. […] BALB/c female mice were split into 3 groups (N=3 group 1 non-treated control, and N=33 groups 2-3). Mice were treated with a single intravenous dose of the Tencon25-ABDCon fusion protein at 2 mg/kg. The dosing was based upon the weight of the animals on the day of administration. The mice were euthanized at the following time points after the injection: 10 min, 30 min, 1, 4, 6, hours, and 1, 2, 3, 7, 10, 14 days. Blood samples were taken from each animal via cardiac puncture. The blood samples were allowed to clot at room temperature for 30 minutes, but no longer than 1 hour. The blood samples were then centrifuged at approximately 3,500 rpm for 15 minutes. Serum samples were analyzed using a homogenous sandwich ELISA on the Mesoscale Discovery platform. Streptavidin-Gold plates (Mesoscale Discovery) were blocked for 1 hour with Superblock (TBS) Tween-20 (Thermo). Polyclonal anti-Tencon25 antibody was used for both capture (biotinylated) and detection (labeled with MSD Sulfo-Tag (Mesoscale Discovery)) at 0.625 μg/ml. The antigen and antibodies were added to the plates, which were incubated for 2 hours with vigorous shaking at RT. Plates were washed with TBS-T (Sigma) and MSD Read Buffer with Surfactant (Mesoscale Discovery) was added. The plates were read using the MSD Sector Imager 6000. Data was analyzed using GraphPad Prism. Previous studies have shown that a similar, unfused Tencon molecule is cleared from the bloodstream quickly with a serum half-life of approximately 20 minutes in mice.
These molecules were dosed into mice at 2 mg/kg as described above in previous studies and analyzed using identical methods as described for the Tencon25-ABDCon fusions.

## ABDCon: non-natural albumin binding domain consensus, SEQ ID NO: 21: […] (LKEAKEKAIEELKKAGITSDYYFDLINKAKTVEGVNALKDEILKA; not fully specified)
[1]
  Kd: 0.075 nM

## ABDCon11: ABDCon mutant A37Y, SEQ ID NO: 34 (LKEAKEKAIEELKKAGITSDYYFDLINKAKTVEGVNYLKDEILKA; Non-natural albumin binding domain ABDCon11)
[2]
  solubility of the expressed mutant: insoluble

## ABDCon12: ABDCon with TIDEWL added to the N-terminus, SEQ ID NO: 44 (TIDEWLLKEAKEKAIEELKKAGITSDYYFDLINKAKTVEGVNALKDEILKA; ABDCon12)
[3]
  melting temperature (thermal stability): 90.9 °C
[3]; DSC in PBS
  increase of melting temperature compared to the original ABDcon molecule: 9.4 °
[4]
  stability (degradation) after incubation: degradation is occurring exclusively in the polyhistidine tag and not in the ABDCon12 sequence

B1: Tencon25-ABDCon: fusion of ABDCon to the c-terminus of Tencon25 FN3 scaffold by a (G4S)2 linker, SEQ ID NO: 39 (protein)
chain: MLPAPKNLVVSEVTEDSARLSWTAPDAAFDSFLIQYQESEKVGEAIVLTVPGSERSYDLTGLKPGTEYTVSIYGVKGGHRSNPLSAIFTTGGGGSGGGGSLKEAKEKAIEELKKAGITSDYYFDLINKAKTVEGVNALKDEILKA
modifications: Fusion protein Tencon25-ABDcon
[5]; 2 mg/kg intravenously
  AUC: 2054.332 µg·h/mL
  Clearance: 22.93 mL/day/kg
  T (½): 60.42 h
  Volume of Distribution: 0.0832873 L/kg
[5]; single intravenous dose 2 mg/kg
  serum half-life: over 60 hours
[4]
  stability (degradation) after incubation: degraded

B2: Tencon-ABDCon: FN3 domain-ABDCon fusion protein, SEQ ID NO: 41 (protein)
chain: B1 chain with A18L, V47N, I87E
modifications: Tencon-ABDCon fusion protein
[4]
  stability (degradation) after incubation: degraded
